According to US20040228866A1, “Suppressor genes” (Ludwig Institute for Cancer Research, priority 2000, published 2004):

Target: p73α (UniProt O15350)
Test: cell-based or functional assay

Sequence of p73α (O15350 whole entry): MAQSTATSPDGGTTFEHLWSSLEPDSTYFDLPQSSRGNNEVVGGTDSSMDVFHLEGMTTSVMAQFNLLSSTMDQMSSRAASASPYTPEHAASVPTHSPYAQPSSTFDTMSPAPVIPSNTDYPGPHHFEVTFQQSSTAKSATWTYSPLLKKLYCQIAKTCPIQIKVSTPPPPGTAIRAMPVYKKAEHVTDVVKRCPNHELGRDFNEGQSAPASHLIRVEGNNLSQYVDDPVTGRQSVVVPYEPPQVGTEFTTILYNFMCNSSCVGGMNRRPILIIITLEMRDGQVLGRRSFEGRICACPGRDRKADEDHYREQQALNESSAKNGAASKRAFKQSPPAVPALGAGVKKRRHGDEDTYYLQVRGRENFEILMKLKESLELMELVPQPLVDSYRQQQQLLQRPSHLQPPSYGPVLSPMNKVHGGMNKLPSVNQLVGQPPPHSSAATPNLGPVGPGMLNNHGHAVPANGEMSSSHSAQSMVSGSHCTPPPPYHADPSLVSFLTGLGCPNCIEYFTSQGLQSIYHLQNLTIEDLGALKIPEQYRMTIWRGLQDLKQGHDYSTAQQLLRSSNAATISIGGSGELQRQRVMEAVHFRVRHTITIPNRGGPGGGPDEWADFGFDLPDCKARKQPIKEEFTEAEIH

transactivation function on the Bax promoter (Bax-luc reporter) [fold] | Binder
3 | Apoptosis Stimulating Protein 1 (ASPP1) (protein) MMPMILTVFLSNNEQILTEVPITPETTCRDVVEFCKEPGEGSCHLAEVWRGNERPIPFDHMMYEHLQIWGPRREEVKFFLRHEDSPTENSEQGGRQTQEQRTQRNVINVPGDKRTEYGVGNPRVELTLSELQDMAARQQQQIENQQQMLVAKEQRLHFLKQQERRQQQSISENEKLQKLKERVEAQENKLKKIRAMRGQVDYSKIMNGNLSAEIERFSAMFQEKKQEVQTAILRVDQLSQQLEDLKKGKLNGFQSYNGKLTGPAAVELKRLYQELQIRNQLNQEQNSKLQQQKELLNKRNMEVAMMDKRISELRERLYGKKIQLNRVNGTSSPQSPLSTSGRVAAVGPYIQVPSAGSFPVLGDPIKPQSLSIASNAAHGRSKSANDGNWPTLKQNSSSSVKPVQVAGADWKDPSVEGSVKQGTVSSQPVPFSALGPTEKPGIEIGKVPPPIPGVGKQLPPSYGTYPSPTPLGPGSTSSLERRKEGSLPRPSAGLPSRQRPTLLPATGSTPQPGSSQQIQQRISVPPSPTYPPAGPPAFPAGDSKPELPLTVAIRPFLADKGSRPQSPRKGPQTVNSSSIYSMYLQQATPPKNYQPAAHSALNKSVKAVYGKPVLPSGSTSPSPLPFLHGSLSTGTPQPQPPSESTEKEPEQDGPAAPADGSTVESLPRPLSPTKLTPIVHSPLRYQSDADLEALRRKLANAPRPLKKRSSITEPEGPGGPNIQKLLYQRFNTLAGGMEGTPFYQPSPSQDFMGTLADVDNGNTNANGNLEELPPAQPTAPLPAEPAPSSDANDNELPSPEPEELICPQTTHQTAEPAEDNNNNVATVPTTEQIPSPVAEAPSPGEEQVPPAPLPPASHPPATSTNKRTNLKKPNSERTGHGLRVRFNPLALLLDASLEGEFDLVQRIIYEVEDPSKPNDEGITPLHNAVCAGHHHIVKFLLDFGVNVNAADSDGWTPLHCAASCNSVHLCKQLVESGAAIFASTISDIETAADKCEEMEEGYIQCSQFLYGVQEKLGVMNKGVAYALWDYEAQNSDELSFHEGDALTILRRKDESETEWWWARLGDREGYVPKNLLGLYPRIKPRQRTLA
6 | ASPP2 (1-1128) (protein) MMPMFLTVYLSNNEQHFTEVPVTPETICRDVVDLCKEPGESDCHLAEVWCGSERPVADNERMFDVLQRFGSQRNEVRFFLRHERPPGRDIVSGPRSQDPSLKRNGVKVPGEYRRKENGVNSPRMDLTLAELQEMASRQQQQIEAQQQLLATKEQRLKFLKQQDQRQQQQVAEQEKLKRLKEIAENQEAKLKKVRALKGHVEQKRLSNGKLVEEIEQMNNLFQQKQRELVLAVSKVEELTRQLEMLKNGRIDSHHDNQSAVAELDRLYKELQLRNKLNQEQNAKLQQQRECLNKRNSEVAVMDKRVNELRDRLWKKKAALQQKENLPVSSDGNLPQQAASAPSRVAAVGPYIQSSTMPRMPSRPELLVKPALPDGSLVIQASEGPMKIQTLPNMRSGAASQTKGSKIHPVGPDWSPSNADLFPSQGSASVPQSTGNALDQVDDGEVPLREKEKKVRPFSMFDAVDQSNAPPSFGTLRKNQSSEDILRDAQVANKNVAKVPPPVPTKPKQINLPYFGQTNQPPSDIKPDGSSQQLSTVVPSMGTKPKPAGQQPRVLLSPSIPSVGQDQTLSPGSKQESPPAAAVRPFTPQPSKDTLLPPFRKPQTVAASSIYSMYTQQQAPGKNFQQAVQSALTKTHTRGPHFSSVYGKPVIAAAQNQQQHPENIYSNSQGKPGSPEPETEPVSSVQENHENERIPRPLSPTKLLPFLSNPYRNQSDADLEALRKKLSNAPRPLKKRSSITEPEGPNGPNIQKLLYQRTTIAAMETISVPSYPSKSASVTASSESPVEIQNPYLHVEPEKEVVSLVPESLSPEDVGNASTENSDMPAPSPGLDYEPEGVPDNSPNLQNNPEEPNPEAPHVLDVYLEEYPPYPPPPYPSGEPEGPGEDSVSMRPPEITGQVSLPPGKRTNLRKTGSERIAHGMRVKFNPLALLLDSSLEGEFDLVQRIIYEVDDPSLPNDEGITALHNAVCAGHTEIVKFLVQFGVNVNAADSDGWTPLHCAASCNNVQVCKFLVESGAAVFAMTYSDMQTAADKCEEMEEGYTQCSQFLYGVQEKMGIMNKGVIYALWDYEPQNDDELPMKEGDCMTIIHREDEDEIEWWWARLNDKEGYVPRNLLGLYPRIKPRQRSLA
